Experimental data reported in article PMC5646243.

Test system: TbRpf2 (Trypanosoma brucei (427?))
Assay: filter binding
Conditions: no Rrs1; 1 mM EDTA; error presumably SEM, 3 replicates; 10 mM Tris pH 7.4, 1 mM EDTA, 100 mM NaCl, 100 ug/ml BSA, 30 min, room temperature; RNA <0.5 nM, protein 0-250 nM

T. brucei 5S rRNA showed a Kd of 0.026 µM.
